Substrate: NC(=O)C[C@H](N)C(=O)O
Experiment: direct Nesslerization (ammonia release)
Type: biochemical, Thermococcus sibiricus
Conditions: 90 °C, substrate not named beside the constant, taken as L-asparagine, pH not stated for the kinetics

B1: TsAI (hyperthermophilic L-asparaginase from Thermococcus sibiricus) (Thermococcus sibiricus MM 739) (protein)
chain: MKKLLIIGTGGTIASAKTEQGYKSVLKIDEILKLAKIKLENGYKIDSTNIMNIDSTLIHPEDWEIIAKEVFKALDDYDGIIITHGTDTLAYTASMLSFMIKNPNKPIVLTGSMLPITENGSDAPRNIRTAIKFAMEDVAGVFVAFMDKIMLGCRTSKVRTLGLNAFMSINYPDVAYVKGEKILYNIPKEKFQPNGSPELDTKYEPRVVVLRVTPGLGGEIIDAVLDAGYKGIVLEGYGAGGLPYRKSNLLSKIKEITPKIPVIMTTQALYDGVDMRKYEVGRKALETGIIPAKDMTKEATITKLMWALGHTKDVEKIREIMHTNYVNEIKS
**Q.** For B1, which Km is on record?
**A.** 3.8 mM

— article PMC12111007, “Potential of Hyperthermophilic L-Asparaginase from Thermococcus sibiricus to Mitigate Dietary Acrylamide Assessed Using a Simplified Food System” (Foods, 2025)
